Values joined by “and” are separate entries in the source; they are usually repeats but may differ in a detail not shown here. Equal entries are not always repeated.
Assays:
Type in all cases: physicochemical
[1] = Bulk density (BD), USP 2014 Method I (616) Bulk Density and Tapped Density of Powders; conditions: lyophilized Tirzepatide powder, before particle size reduction
Procedure: Bulk density (BD) was measured according to USP 2014 Method I (616) Bulk Density and Tapped Density of Powders.

[2] = Flowability, flow through an orifice (BEP2 Flowability Tester, 25 mm nozzle); conditions: lyophilized Tirzepatide powder; flow through funnel, 25 mm aperture
Description: Instrument: BEP2 Flowability Tester from Copley Scientific, with Funnel Attachment and Manually Operated Stirrer with a nozzle corresponding to aperture size of 25 mm.
Methodology: Flow Through an Orifice
The test sample was introduced into the funnel and the time required for the entire sample to flow out of the funnel was measure using a suitable stopwatch.
The flow rate results are expressed in terms of mass vs time, i.e., grams per second.

[3] = Particle size distribution by laser diffraction (Malvern Mastersizer 3000, Mie theory, Isopar-G); conditions: Tirzepatide powder after particle size reduction (jet milling or sieving)
Procedure: As used herein, particle size distribution is determined by means of laser diffractometry. More specifically, unless otherwise indicated, the particle size was determined using a Mastersizer 3000 from Malvern Instruments. Preferably, particle size and particle size distribution are determined by laser light diffraction, using Mie theory, and Isopar-G dispersant (isoparaffinic fluid (CAS No) 64742-48-9)) refractive index 1.42.
It will be understood that the term “D(90)” as used herein refers to a particle size distribution where 90% of the volume of particles have a diameter lower than the D(90) value.
• Instrumentation: Malvern Laser Diffraction Mastersizer 3000, Hydro My cell • Measuring range: 0.01-3500 mcm • Analysis model: Mie Theory • Powder RI: 1.488, Absorption: 1 • Dispersant name: Isopar-G • Dispersant RI: 1.42 • Speed rate of the flow cell: 2500 • Internal Sonication: 1 minute • Recirculation time: 1 minute

Row | Substance | BD (bulk density) [1] [g/mL] | flowability [2] | particle size d(0.9) [3]
1 | Tirzepatide [Example 1A] | 0.13 | 9.7 g/s | 
2 | Tirzepatide [Example 1B] | 0.007 | non flowable | 
3 | Tirzepatide [Example 1] | 0.1 | 6.1 g/s | 
4 | Tirzepatide [Example 2] |  |  | 21.9 μm
5 | Tirzepatide [Example 3A] |  |  | 59 μm and 59.1 μm
6 | Tirzepatide [Example 3B] |  |  | 128 μm and 128.0 μm
7 | Tirzepatide [Example 3] |  |  | 31 μm and 30.9 μm

From patent US20260265332A1, “PROCESS FOR PREPARATION OF DUAL GIP/GLP-1 PEPTIDES HAVING CONTROLLED PARTICLE SIZE” (ASSIA CHEMICAL INDUSTRIES LTD., priority 2023, published 2026)
